The series deals with MS2 coat protein. Put plainly: apparent KD of MS2 coat protein; designed switch direction (-1 OFF switch, 1 ON switch): -1; higher = weaker reporter binding. The essentials:
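An oligonucleotide input, 200 uM small-molecule ligand, or no input was present during titration of SNAP-549-labelled MS2 coat protein, which was doubled from 0.7 or 1.5 nM to 3 µM. Designed RNA switches had been transcribed on Illumina chips by stalled E. coli RNA polymerase. Apparent KD per design is the median over clusters of curves fitted to normalised cluster fluorescence.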

The mark [1] stands for this setting: input ligand: microRNA oligo, concentration not stated.

“AAAUUCAGAGGAUAUGCGCAUAGAUAAGACUUUUUUUUUUAACAUGAGGAUCACCCAUGUAGAAGGCUGUAAAU [Ex2 #52] (Eterna round: R97, puzzle: Exclusion 2)”: the “apparent KD of MS2 coat protein” value reads like this: (input ligand: FMN 200 uM) 24 nM; (input ligand: none) 25.5 nM.
Consider “AACACUGUAGGAUAUCAUGAACUGGACUUGAGGAUCACCCAAGUGUAUCGUGGAGUGCCGUGAGAAGGACGGAUUA [Erleen] (Eterna round: R97, puzzle: Exclusion 5)”, for which the “apparent KD of MS2 coat protein” value turned out to be 28.1 nM (input ligand: FMN 200 uM) and 27.2 nM (input ligand: none).
As for “AACAGUCUGGAGGAUAUGCUGGAUAAAUAUCUGGCAGAAGGCUGGACAUGAGGAUCACCCAUGUAAAUACUACC [Omei Ex6 A2b] (Eterna round: R97, puzzle: Exclusion 6)”, the “apparent KD of MS2 coat protein” value worked out at 54.5 nM (input ligand: FMN 200 uM) and 24.9 nM (input ligand: none).
Turning to “AACAUGAGGAUCACCCAUGUGGGUCCUCUGUGGCAGCGAGACGAGGAUAUCAAUGGAGGGCCAGGUGAGAAGGUGUACGAUCAU [Eternabot solution 28] (Eterna round: R96, puzzle: Exclusion NG 3)”, the “apparent KD of MS2 coat protein” value (input ligand: FMN 200 uM) amounted to 183 nM, the “apparent KD of MS2 coat protein” value under setting [1] was determined as 192 nM and the “apparent KD of MS2 coat protein” value (input ligand: none) was 386 nM.
Consider “AACAUGUGAGGAUAUUAUCACAAAGGCGUAGAAAUACGCGAUAAGAAGGCACAUGAGGAUCACCCAUGUUCCGA [EX4 A.24] (Eterna round: R97, puzzle: Exclusion 4)”, for which the “apparent KD of MS2 coat protein” value runs as follows: (input ligand: FMN 200 uM) 66.8 nM; (input ligand: none) 17.5 nM.
Turning to “AACAUUCCAGAAAGGAAUGACAUGAGGAUCACCCAUGUAGGGAUCUAUGCUAAGUUGCUCGUCGCCGCUCCACAAAG [Eternabot (Original) Solution 5] (Eterna round: R97, puzzle: Sensor, turn-off variant 1)”, the “apparent KD of MS2 coat protein” value came to 431 nM (input ligand: FMN 200 uM) and 362 nM (input ligand: none).
Regarding “AACCUACAUGAGGAUCACCCAUGUGAGGAUAUAUUGUUAUUUAUAUUAUUUUUUAGAGGUAGAAGGCGCGUGAU [JR_Exc1_Sub020] (Eterna round: R97, puzzle: Exclusion 1)”, the “apparent KD of MS2 coat protein” value (input ligand: FMN 200 uM) amounted to 15.9 nM and the “apparent KD of MS2 coat protein” value (input ligand: none) was found to be 17.3 nM.
As to “AACCUGAGGCAAAGCUUUAGGCUUACAUGAGGAUCACCCAUGUAGGAUAUGGUAGGCAAAGCUUACCAGAAGGACAUGGAAAUU [Mat - Exclusion NG 3 - Mod of JL - D24] (Eterna round: R96, puzzle: Exclusion NG 3)”, the “apparent KD of MS2 coat protein” value came to 611 nM (input ligand: FMN 200 uM), 127 nM under setting [1] and 130 nM (input ligand: none).
The like results for “AACCUGAGGCAAAGCUUUAGGUGUACAUGAGGAUCACCCAUGUAGGAUAUGGUAGGCAAAGCUUACCAGAAGGACAUAAUGAUG [Mat - Exclusion NG 3 - Mod of JL - D47] (Eterna round: R96, puzzle: Exclusion NG 3)” were, in that order, 100 nM, 45.1 nM and 83.7 nM.
For the sequence “AACUUCUGAGGAUAUACAUAGAUUUACAUGAGGAUCACCCAUGUUCCUCUAUGUAUAAAUGUAGAAGGCAGAAGAU [Mat - Exclusion 5 - JL Mod - D62] (Eterna round: R97, puzzle: Exclusion 5)”, the “apparent KD of MS2 coat protein” value by setting is: (input ligand: FMN 200 uM) 129 nM; (input ligand: none) 18.4 nM.
As to “AACUUCUGAGGAUAUACUUAGAUUUACAUGAGGAUCACCCAUGUUCCUCUUUGUAUAAAUGUAGAAGGCAGAAGAA [JL-ex5-4.38 Malcolm mod] (Eterna round: R97, puzzle: Exclusion 5)”, the “apparent KD of MS2 coat protein” value is, setting by setting: (input ligand: FMN 200 uM) 381 nM; (input ligand: none) 45.3 nM.
As to “AAGAAACAUGAGGAUCACCCAUGUGAGGAUAUAGAAAGAAAGAAAAGAAAAGAAAGAACUAGAAGGCACAAAGA [JR_Exclu1_Sub030] (puzzle: Exclusion 1)”, the “apparent KD of MS2 coat protein” value runs as follows: (Eterna round: R95, input ligand: FMN 200 uM) 26.2 nM; (Eterna round: R95, input ligand: microRNA oligo, concentration not stated) 26.4 nM; (Eterna round: R95, input ligand: none) 30.8 nM.

For the origin of these results see the supplement of paper PMC9170038.
